Here are results for two molecules from patent publication US20170198014A1 (UNIVERSITY WASHINGTON THROUGH ITS CENTER FOR …, published 2017).

The target of experiment [1] is T1, hemagglutinin H3 (A/Hong Kong/1/1968-H3N2) (influenza A virus A/Hong Kong/1/1968 …, UniProt Q91MA7 27-521). Kind of experiment: BLI (Octet), biotinylated HA on streptavidin sensors. Background: In BLI a coated tip is dipped into the sample, and binding shifts an interference pattern.
Experiment [2] addresses hemagglutinin H1 (A/Solomon Islands/3/2006) (influenza A virus A/Solomon …). The description is as above.
In experiment [3] the target is T1, hemagglutinin H3 (A/Hong …). Kind of experiment: BLI (FIG. 5).

B1: Hsc1 (SEQ ID NO:135) fused to HAA.1c (SEQ ID NO:227) via the triLong linker (SEQ ID NO: 352), trimer (designed binder)
chain: MEEVVLITVPSEEVARTIAKALVEERLAACVNIVPGLTSIYRWQGEVVEDQELLLLVKTTTHAFPKLKERVKALHPYTVPEIVALPIAQGNQEYLDWLRENAGGGGSGGSGIVNVPNCNTTKYQQLARTAVAIYNYHEQAHLTFVENLNCKEQLGEGDYYYITLAATDDAGKKAIYEAKIGVVESAGWTGVEEFKLV
As usually defined, the Kd is the constant that tells how readily two partners part at equilibrium. A lower Kd goes with a tighter complex. As for B1, the dissociation constant Kd in experiment [1] and in experiment [2] was less than 1 nM each time.

B2: HAA.1 c fused to Hsc1-EA via a triLong linker, trimer (designed binder)
chain: MEEVVLITVPSEEVARTIAKALVEERLAACVNIVPGLTSIYRWQGEVVEDQELLLLVKTTTHAFPKLKERVKALHPYTVPEIVALPIAQGNQEYLDWLRENAGGGGSGGSGIVNVPNCNTTKYQQLARTAVAIYNYHEQAHLTFVENLNCKEQGNYYYITLAATDDAGKKAIYEAKIGVVESAGWTGVEEFKLV
Turning to B2, the Kd in experiment [3] was less than 1 nM.
